Measured values published in the supplement of paper PMC12338614.
± gives the uncertainty stated by the source.

B1: library; numbered along this chain (parent)
chain: MEVVDPQQLGMFTEGELMSVGMDTFIHRIDSTEVIYQPRRKRAKLIGKYLMGDLLGEGSYGKVKEVLDSETLCRRAVKILKKKKLRRIPNGEANVKKEIQLLRRLRHKNVIQLVDVLYNEEKQKMYMVMEYCVCGMQEMLDSVPEKRFPVCQAHGYFCQLIDGLEYLHSQGIVHKDIKPGNLLLTTGGTLKISDLGVAEALHPFAADDTCRTSQGSPAFQPPEIANGLDTFSGFKVDIWSAGVTLYNITTGLYPFEGDNIYKLFENIGKGSYAIPGDCGPPLSDLLKGMLEYEPAKRFSIRQIRQHSWFRKKHPPAEAPVPIPPSPDTKDRWRSMTVVPYLEDLHGADEDEDLFDIEDDIIYTQDFTVPGQVPEEEASHNGQRRGLPKAVCMNGTEAAQLSTKSRAEGRAPNPARKACSASSKIRRLSACKQQ

Variants of: B1
Test: STK11 functional score (HeLa growth suppression), rescaled enrichment; synonymous median = 1, nonsense median = 0 (normalised score)
Conditions: with HeLa; variant type: missense
How it was run: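 Codon-randomised (POPCode) libraries of codon-optimised STK11 were integrated by Bxb1 at an AAVS1 landing pad in HeLa, in three regions each transfected three times. Integrants (BFP-negative, mCherry-positive) were FACS-sorted 4–5 days after electroporation and grown about two weeks; tiled gDNA amplicons were sequenced on NextSeq (~2 million reads per tile). The functional score is the wild-type-corrected post/pre-selection log ratio, rescaled to synonymous and nonsense medians, merged over codons and replicate transfections, with bootstrapped error.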

Variant | STK11 functional score
E121M | 0.84 ± 0.28
K62A | 1.7 ± 0.31
K62Y | 1.31 ± 0.49
P38F | 1.31 ± 0.25
P315S | 1.41 ± 0.14
G233Q | 1.62 ± 0.24
T209V | 1.42 ± 0.31
R40P | 1.17 ± 0.38
C210S | 0.964 ± 0.59
C210E | 0.0554 ± 0.2
L54T | 1.47 ± 0.23
T230A | 0.88 ± 0.11
S59H | 1.09 ± 0.58
T250G | 0.834 ± 0.095
S283G | 1.19 ± 0.11
S283A | 1.24 ± 0.14
E16Q | 1.16 ± 0.77
G180I | 1.41 ± 0.39
M125H | 0.857 ± 0.64
K78I | -0.0791 ± 0.14
T249E | -0.289 ± 0.13
I248E | 0.873 ± 0.49
I248G | 0.0645 ± 0.096
A398F | 1.12 ± 0.42

Variant | STK11 functional score
P319C | 0.642 ± 0.073
A316R | 0.901 ± 0.098
A417L | 1.51 ± 0.15
G242L | -0.0195 ± 0.092
G242S | 0.0147 ± 0.098
L285P | -0.13 ± 0.21
T24P | 1.65 ± 0.26
A406Q | 1.56 ± 0.33
C132S | 0.556 ± 0.09
H345V | 1.22 ± 0.44
V243S | 0.561 ± 0.11
K191L | 0.262 ± 0.11
K191T | 1.16 ± 0.12
K122P | 1.68 ± 0.28
K122D | 1.52 ± 0.36
T189L | 1.24 ± 0.39
F366G | 1.55 ± 0.13
N181A | 0.0629 ± 0.078
E199C | 1.38 ± 0.23
Q305E | 1.02 ± 0.38
C391G | 1.22 ± 0.32
I274D | 0.889 ± 0.3
K64V | 1.38 ± 0.19
T402I | 1.25 ± 0.2

Variant | STK11 functional score
T402M | 1.23 ± 0.11
V34C | 0.884 ± 0.4
R415D | 1.43 ± 0.23
L353W | 1.12 ± 0.64
R106A | 1.45 ± 0.18
R106G | 0.687 ± 0.11
E349P | 1.41 ± 0.14
D343I | 1.57 ± 0.18
Q220E | 0.51 ± 0.44
N90K | -0.0122 ± 0.3
E33W | 0.795 ± 0.09
H154N | 0.196 ± 0.14
L245H | -0.0776 ± 0.099
I322T | 0.984 ± 0.58
I322Y | 0.925 ± 0.36
I322E | 1.11 ± 0.19
Q123I | 0.581 ± 0.083
K431C | 1.59 ± 0.34
E70D | 1.05 ± 0.45
E70C | 1.39 ± 0.52
I300C | 0.803 ± 0.36
F219S | 0.778 ± 0.18
R28C | 0.873 ± 0.22
M335T | 1.46 ± 0.19

Variant | STK11 functional score
N109L | 0.662 ± 0.11
E57D | 0.893 ± 0.15
E57Y | 0.95 ± 0.39
P324L | 1.37 ± 0.19
P324V | 1.58 ± 0.14
E14I | 1.4 ± 0.14
G276E | 1.57 ± 0.32
C418D | 1.57 ± 0.34
L140P | -0.0157 ± 0.083
L140S | -0.236 ± 0.08
F231I | 1.62 ± 0.17
Q382C | 1.15 ± 0.19
T212L | 1.06 ± 0.33
L9R | 1.12 ± 0.2
I88R | 1.65 ± 0.19
S334G | 1.35 ± 0.17
T71I | 1.11 ± 0.24
D115V | 1.27 ± 0.1
D115W | 0.727 ± 0.26
D115Y | 0.294 ± 0.094
P254T | 0.929 ± 0.1
D359A | 1.4 ± 0.15
D350V | 1.19 ± 0.34
D176C | -0.0937 ± 0.092

Variant | STK11 functional score
K81D | 1.28 ± 0.56
R331G | 1.41 ± 0.16
S378V | 1.04 ± 0.17
E351W | 1.48 ± 0.16
P411A | 1.04 ± 0.31
Y362F | 1.05 ± 0.12
E375T | 0.94 ± 0.28
E293W | 1.07 ± 0.23
E265A | 1.3 ± 0.53
V150W | 0.631 ± 0.074
S404T | 1.23 ± 0.67
H202A | 1.17 ± 0.49
H202M | 1.19 ± 0.31
H202R | 0.161 ± 0.26
A218W | 0.671 ± 0.25
F255R | 0.632 ± 0.2
Y118S | 0.99 ± 0.1
G346K | 1.61 ± 0.25
D348Q | 1.54 ± 0.22
D348V | 0.78 ± 0.44
A377G | 1.01 ± 0.21
Y246L | 0.818 ± 0.17
R409W | 1.42 ± 0.11
P387C | 1.54 ± 0.24

Variant | STK11 functional score
P387E | 1.6 ± 0.17
G10I | 1.64 ± 0.13
I99Q | 0.527 ± 0.62
I99M | 1.07 ± 0.36
S422I | 1.3 ± 0.21
S422Q | 1.58 ± 0.13
F234E | 1.59 ± 0.46
D237N | 1.36 ± 0.7
K423L | 1.45 ± 0.52
C73E | 1.7 ± 0.41
C73T | 1.6 ± 0.45
V143P | -0.133 ± 0.082
L195G | 0.969 ± 0.22
L55P | 1.23 ± 0.39
H174N | 0.317 ± 0.17
H174G | 0.326 ± 0.24
G135D | 1.06 ± 0.37
G394E | 1.26 ± 0.23
A410N | 1.32 ± 0.11
N380L | 0.908 ± 0.27
Q399P | 1.35 ± 0.52
Q399T | 1.29 ± 0.25
R426F | 1.3 ± 0.43
T328P | 1.57 ± 0.16

Variant | STK11 functional score
T328V | 1.36 ± 0.14
H168I | 0.159 ± 0.098
K403G | 1.46 ± 0.23
A206R | 1.64 ± 0.13
A206E | 0.305 ± 0.46
F298S | 0.975 ± 0.27
L201K | 1.64 ± 0.14
H379Y | 1.39 ± 0.47
E223H | 1.18 ± 0.17
R75F | 1.08 ± 0.19
K287F | 1.25 ± 0.2
K287W | 0.0714 ± 0.29
T363M | 1.59 ± 0.17
A76V | 1.06 ± 0.077
V114D | 1.17 ± 0.27
Q159M | 1.14 ± 0.096
V338W | 0.683 ± 0.13
V338P | 1.54 ± 0.18
P281C | 0.746 ± 0.32
Q371F | 1.12 ± 0.24
L286G | -0.0797 ± 0.098
L80Q | 1.45 ± 0.09
R383P | 1.31 ± 0.26
